Results on 16 molecules are retold here after US20260176319A1 (KALLYOPE, published 2026).

The target in this assay is human GRP receptor (human, UniProt P30550 1-384). Put plainly: cell-based or functional assay.

Starred links: 1 amine or outer side, 2 acyl side, 3 side chain; linkers in the order of their positions; H or OH if unused. Non-standard residues stand in square brackets, D forms with d. *: point of attachment. Trp(6-Me) = Cc1ccc2c(C[C@H](N)C(=O)O)c[nH]c2c1; Trp(7-Me) = Cc1cccc2c(C[C@H](N)C(=O)O)c[nH]c12; d(γGlu) = O=C(O)[C@@H](CCC(=O)[*:2])N[*:1]; C18 diacid = O=C(O)CCCCCCCCCCCCCCCCC(=O)*; Palmitoyl = CCCCCCCCCCCCCCCC(=O)*; 3Pal = N[C@@H](Cc1cccnc1)C(=O)O; Nle = CCCC[C@H](N)C(=O)O; AEEA = NCCOCCOCC(=O)O; Aib = CC(C)(N)C(=O)O; Sar = CNCC(=O)O

Chain of human GRP receptor (P30550 whole entry): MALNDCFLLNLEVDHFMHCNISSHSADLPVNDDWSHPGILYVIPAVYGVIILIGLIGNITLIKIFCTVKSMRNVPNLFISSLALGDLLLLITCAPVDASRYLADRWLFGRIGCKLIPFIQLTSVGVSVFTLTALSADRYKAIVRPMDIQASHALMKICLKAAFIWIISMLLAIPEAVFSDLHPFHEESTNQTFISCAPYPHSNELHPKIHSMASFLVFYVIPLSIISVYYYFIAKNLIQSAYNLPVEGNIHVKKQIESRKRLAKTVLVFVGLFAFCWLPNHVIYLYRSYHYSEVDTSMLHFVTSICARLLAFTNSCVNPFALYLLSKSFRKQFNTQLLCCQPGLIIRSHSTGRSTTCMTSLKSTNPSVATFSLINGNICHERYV

B1: Peptide 59 (peptide)
peptide: Palmitoyl-[d(γGlu)][AEEA][AEEA][AEEA][AEEA]GNH[Trp(7-Me)]AV[dA]HL[Nle]-NH2
SMILES: CCCCCCCCCCCCCCCC(=O)N[C@H](CCC(=O)NCCOCCOCC(=O)NCCOCCOCC(=O)NCCOCCOCC(=O)NCCOCCOCC(=O)NCC(=O)N[C@@H](CC(N)=O)C(=O)N[C@@H](Cc1c[nH]cn1)C(=O)N[C@@H](Cc1c[nH]c2c(C)cccc12)C(=O)N[C@@H](C)C(=O)N[C@H](C(=O)N[C@H](C)C(=O)N[C@@H](Cc1c[nH]cn1)C(=O)N[C@@H](CC(C)C)C(=O)N[C@@H](CCCC)C(N)=O)C(C)C)C(=O)O
Regarding B1, the “hIP1 GRPR EC50” value was 2.01 nM.

B2: Peptide 69 (peptide)
peptide: {C18 diacid}-[d(γGlu)][AEEA][AEEA]GNHWAV[dA]HLR-NH2
SMILES: CC(C)C[C@H](NC(=O)[C@H](Cc1c[nH]cn1)NC(=O)[C@@H](C)NC(=O)[C@@H](NC(=O)[C@H](C)NC(=O)[C@H](Cc1c[nH]c2ccccc12)NC(=O)[C@H](Cc1c[nH]cn1)NC(=O)[C@H](CC(N)=O)NC(=O)CNC(=O)COCCOCCNC(=O)COCCOCCNC(=O)CC[C@@H](NC(=O)CCCCCCCCCCCCCCCCC(=O)O)C(=O)O)C(C)C)C(=O)N[C@@H](CCCNC(=N)N)C(N)=O
For B2, the “hIP1 GRPR EC50” value was greater than 10000 nM.

B3: Peptide 60 (peptide)
peptide: {C18 diacid}-[d(γGlu)][AEEA][AEEA]GKHWAV[dA]HL[Nle]-NH2
SMILES: CCCC[C@H](NC(=O)[C@H](CC(C)C)NC(=O)[C@H](Cc1c[nH]cn1)NC(=O)[C@@H](C)NC(=O)[C@@H](NC(=O)[C@H](C)NC(=O)[C@H](Cc1c[nH]c2ccccc12)NC(=O)[C@H](Cc1c[nH]cn1)NC(=O)[C@H](CCCCN)NC(=O)CNC(=O)COCCOCCNC(=O)COCCOCCNC(=O)CC[C@@H](NC(=O)CCCCCCCCCCCCCCCCC(=O)O)C(=O)O)C(C)C)C(N)=O
For the molecule B3, the “hIP1 GRPR EC50” value worked out at 7.27 nM.

B4: Peptide 68 (peptide)
peptide: {C18 diacid}-[d(γGlu)][AEEA][AEEA]GNHHAV[dA]HL[Nle]-NH2
SMILES: CCCC[C@H](NC(=O)[C@H](CC(C)C)NC(=O)[C@H](Cc1c[nH]cn1)NC(=O)[C@@H](C)NC(=O)[C@@H](NC(=O)[C@H](C)NC(=O)[C@H](Cc1c[nH]cn1)NC(=O)[C@H](Cc1c[nH]cn1)NC(=O)[C@H](CC(N)=O)NC(=O)CNC(=O)COCCOCCNC(=O)COCCOCCNC(=O)CC[C@@H](NC(=O)CCCCCCCCCCCCCCCCC(=O)O)C(=O)O)C(C)C)C(N)=O
With B4, the “hIP1 GRPR EC50” value is greater than 10000 nM.

B5: Peptide 70 (peptide)
peptide: {C18 diacid}-[d(γGlu)][AEEA][AEEA]GEHW[Aib]V[dA]HL[Nle]-NH2
SMILES: CCCC[C@H](NC(=O)[C@H](CC(C)C)NC(=O)[C@H](Cc1c[nH]cn1)NC(=O)[C@@H](C)NC(=O)[C@@H](NC(=O)C(C)(C)NC(=O)[C@H](Cc1c[nH]c2ccccc12)NC(=O)[C@H](Cc1c[nH]cn1)NC(=O)[C@H](CCC(=O)O)NC(=O)CNC(=O)COCCOCCNC(=O)COCCOCCNC(=O)CC[C@@H](NC(=O)CCCCCCCCCCCCCCCCC(=O)O)C(=O)O)C(C)C)C(N)=O
On to B5, for which the “hIP1 GRPR EC50” value was found to be 972 nM.

B6: Peptide 65 (peptide)
peptide: {C18 diacid}-[d(γGlu)][AEEA][AEEA]GK(Ac)HWAV[dA]HL[Nle]-NH2
SMILES: CCCC[C@H](NC(=O)[C@H](CC(C)C)NC(=O)[C@H](Cc1c[nH]cn1)NC(=O)[C@@H](C)NC(=O)[C@@H](NC(=O)[C@H](C)NC(=O)[C@H](Cc1c[nH]c2ccccc12)NC(=O)[C@H](Cc1c[nH]cn1)NC(=O)[C@H](CCCCNC(C)=O)NC(=O)CNC(=O)COCCOCCNC(=O)COCCOCCNC(=O)CC[C@@H](NC(=O)CCCCCCCCCCCCCCCCC(=O)O)C(=O)O)C(C)C)C(N)=O
Regarding B6, the “hIP1 GRPR EC50” value worked out at 6.05 nM.

B7: Peptide 72 (peptide)
peptide: {C18 diacid}-[d(γGlu)][AEEA][AEEA]GN[3Pal]WAV[dA]HL[Nle][Sar]-NH2
SMILES: CCCC[C@H](NC(=O)[C@H](CC(C)C)NC(=O)[C@H](Cc1c[nH]cn1)NC(=O)[C@@H](C)NC(=O)[C@@H](NC(=O)[C@H](C)NC(=O)[C@H](Cc1c[nH]c2ccccc12)NC(=O)[C@H](Cc1cccnc1)NC(=O)[C@H](CC(N)=O)NC(=O)CNC(=O)COCCOCCNC(=O)COCCOCCNC(=O)CC[C@@H](NC(=O)CCCCCCCCCCCCCCCCC(=O)O)C(=O)O)C(C)C)C(=O)N(C)CC(N)=O
As to B7, the “hIP1 GRPR EC50” value was 1050 nM.

B8: Peptide 61 (peptide)
peptide: {C18 diacid}-[d(γGlu)][AEEA][AEEA]GRHWAV[dA]HL[Nle]-NH2
SMILES: CCCC[C@H](NC(=O)[C@H](CC(C)C)NC(=O)[C@H](Cc1c[nH]cn1)NC(=O)[C@@H](C)NC(=O)[C@@H](NC(=O)[C@H](C)NC(=O)[C@H](Cc1c[nH]c2ccccc12)NC(=O)[C@H](Cc1c[nH]cn1)NC(=O)[C@H](CCCNC(=N)N)NC(=O)CNC(=O)COCCOCCNC(=O)COCCOCCNC(=O)CC[C@@H](NC(=O)CCCCCCCCCCCCCCCCC(=O)O)C(=O)O)C(C)C)C(N)=O
As to B8, the “hIP1 GRPR EC50” value was found to be 8.25 nM.

B9: Peptide 66 (peptide)
peptide: {C18 diacid}-[d(γGlu)][AEEA][AEEA]GNHWAV[dA][3Pal]L[Nle]-NH2
SMILES: CCCC[C@H](NC(=O)[C@H](CC(C)C)NC(=O)[C@H](Cc1cccnc1)NC(=O)[C@@H](C)NC(=O)[C@@H](NC(=O)[C@H](C)NC(=O)[C@H](Cc1c[nH]c2ccccc12)NC(=O)[C@H](Cc1c[nH]cn1)NC(=O)[C@H](CC(N)=O)NC(=O)CNC(=O)COCCOCCNC(=O)COCCOCCNC(=O)CC[C@@H](NC(=O)CCCCCCCCCCCCCCCCC(=O)O)C(=O)O)C(C)C)C(N)=O
On to B9, for which the “hIP1 GRPR EC50” value stood at 308 nM.

B10: Peptide 71 (peptide)
peptide: {C18 diacid}-[d(γGlu)][AEEA][AEEA]K(Ac)HWAV[dA]HL[Nle]-NH2
SMILES: CCCC[C@H](NC(=O)[C@H](CC(C)C)NC(=O)[C@H](Cc1c[nH]cn1)NC(=O)[C@@H](C)NC(=O)[C@@H](NC(=O)[C@H](C)NC(=O)[C@H](Cc1c[nH]c2ccccc12)NC(=O)[C@H](Cc1c[nH]cn1)NC(=O)[C@H](CCCCNC(C)=O)NC(=O)COCCOCCNC(=O)COCCOCCNC(=O)CC[C@@H](NC(=O)CCCCCCCCCCCCCCCCC(=O)O)C(=O)O)C(C)C)C(N)=O
Turning to B10, the “hIP1 GRPR EC50” value stood at 6.2 nM.

B11: Peptide 73 (peptide)
peptide: {C18 diacid}-[d(γGlu)][AEEA][AEEA]GN[3Pal][Trp(7-Me)]AV[dA]HL[Nle][Sar]-NH2
SMILES: CCCC[C@H](NC(=O)[C@H](CC(C)C)NC(=O)[C@H](Cc1c[nH]cn1)NC(=O)[C@@H](C)NC(=O)[C@@H](NC(=O)[C@H](C)NC(=O)[C@H](Cc1c[nH]c2c(C)cccc12)NC(=O)[C@H](Cc1cccnc1)NC(=O)[C@H](CC(N)=O)NC(=O)CNC(=O)COCCOCCNC(=O)COCCOCCNC(=O)CC[C@@H](NC(=O)CCCCCCCCCCCCCCCCC(=O)O)C(=O)O)C(C)C)C(=O)N(C)CC(N)=O
As to B11, the “hIP1 GRPR EC50” value amounted to 1190 nM.

B12: Peptide 64 (peptide)
peptide: {C18 diacid}-[d(γGlu)][AEEA][AEEA]GN[3Pal]WAV[dA]HL[Nle]-NH2
SMILES: CCCC[C@H](NC(=O)[C@H](CC(C)C)NC(=O)[C@H](Cc1c[nH]cn1)NC(=O)[C@@H](C)NC(=O)[C@@H](NC(=O)[C@H](C)NC(=O)[C@H](Cc1c[nH]c2ccccc12)NC(=O)[C@H](Cc1cccnc1)NC(=O)[C@H](CC(N)=O)NC(=O)CNC(=O)COCCOCCNC(=O)COCCOCCNC(=O)CC[C@@H](NC(=O)CCCCCCCCCCCCCCCCC(=O)O)C(=O)O)C(C)C)C(N)=O
In the case of B12, the “hIP1 GRPR EC50” value amounted to 49.4 nM.

B13: Peptide 4 (peptide)
peptide: {C18 diacid}-[d(γGlu)][AEEA][AEEA]GNHWAV[Aib]HL[Nle]-NH2
SMILES: CCCC[C@H](NC(=O)[C@H](CC(C)C)NC(=O)[C@H](Cc1c[nH]cn1)NC(=O)C(C)(C)NC(=O)[C@@H](NC(=O)[C@H](C)NC(=O)[C@H](Cc1c[nH]c2ccccc12)NC(=O)[C@H](Cc1c[nH]cn1)NC(=O)[C@H](CC(N)=O)NC(=O)CNC(=O)COCCOCCNC(=O)COCCOCCNC(=O)CC[C@@H](NC(=O)CCCCCCCCCCCCCCCCC(=O)O)C(=O)O)C(C)C)C(N)=O
As to B13, the “hIP1 GRPR EC50” value was determined as 1420 nM.

B14: Peptide 62 (peptide)
peptide: {C18 diacid}-[d(γGlu)][AEEA][AEEA]GNHWAV[dA]FL[Nle]-NH2
SMILES: CCCC[C@H](NC(=O)[C@H](CC(C)C)NC(=O)[C@H](Cc1ccccc1)NC(=O)[C@@H](C)NC(=O)[C@@H](NC(=O)[C@H](C)NC(=O)[C@H](Cc1c[nH]c2ccccc12)NC(=O)[C@H](Cc1c[nH]cn1)NC(=O)[C@H](CC(N)=O)NC(=O)CNC(=O)COCCOCCNC(=O)COCCOCCNC(=O)CC[C@@H](NC(=O)CCCCCCCCCCCCCCCCC(=O)O)C(=O)O)C(C)C)C(N)=O
For the molecule B14, the “hIP1 GRPR EC50” value came out at 83.7 nM.

B15: Peptide 63 (peptide)
peptide: Palmitoyl-[d(γGlu)][AEEA][AEEA]GNH[Trp(6-Me)]AV[dA]HL[Nle]-NH2
SMILES: CCCCCCCCCCCCCCCC(=O)N[C@H](CCC(=O)NCCOCCOCC(=O)NCCOCCOCC(=O)NCC(=O)N[C@@H](CC(N)=O)C(=O)N[C@@H](Cc1c[nH]cn1)C(=O)N[C@@H](Cc1c[nH]c2cc(C)ccc12)C(=O)N[C@@H](C)C(=O)N[C@H](C(=O)N[C@H](C)C(=O)N[C@@H](Cc1c[nH]cn1)C(=O)N[C@@H](CC(C)C)C(=O)N[C@@H](CCCC)C(N)=O)C(C)C)C(=O)O
As to B15, the “hIP1 GRPR EC50” value was determined as 4.75 nM.

B16: Peptide 67 (peptide)
peptide: {C18 diacid}-[d(γGlu)][AEEA][AEEA]GEHWAV[dA][3Pal]L[Nle]-NH2
SMILES: CCCC[C@H](NC(=O)[C@H](CC(C)C)NC(=O)[C@H](Cc1cccnc1)NC(=O)[C@@H](C)NC(=O)[C@@H](NC(=O)[C@H](C)NC(=O)[C@H](Cc1c[nH]c2ccccc12)NC(=O)[C@H](Cc1c[nH]cn1)NC(=O)[C@H](CCC(=O)O)NC(=O)CNC(=O)COCCOCCNC(=O)COCCOCCNC(=O)CC[C@@H](NC(=O)CCCCCCCCCCCCCCCCC(=O)O)C(=O)O)C(C)C)C(N)=O
As to B16, the “hIP1 GRPR EC50” value was found to be 1050 nM.
